Data from US20070142277A1.

Molecular target: endogenously expressed APP isoforms in SH-SY5Y cells (human) (UniProt P05067)
Assay: cell-based or functional assay

Chain of endogenously expressed APP isoforms in SH-SY5Y cells (human) (P05067 18-770): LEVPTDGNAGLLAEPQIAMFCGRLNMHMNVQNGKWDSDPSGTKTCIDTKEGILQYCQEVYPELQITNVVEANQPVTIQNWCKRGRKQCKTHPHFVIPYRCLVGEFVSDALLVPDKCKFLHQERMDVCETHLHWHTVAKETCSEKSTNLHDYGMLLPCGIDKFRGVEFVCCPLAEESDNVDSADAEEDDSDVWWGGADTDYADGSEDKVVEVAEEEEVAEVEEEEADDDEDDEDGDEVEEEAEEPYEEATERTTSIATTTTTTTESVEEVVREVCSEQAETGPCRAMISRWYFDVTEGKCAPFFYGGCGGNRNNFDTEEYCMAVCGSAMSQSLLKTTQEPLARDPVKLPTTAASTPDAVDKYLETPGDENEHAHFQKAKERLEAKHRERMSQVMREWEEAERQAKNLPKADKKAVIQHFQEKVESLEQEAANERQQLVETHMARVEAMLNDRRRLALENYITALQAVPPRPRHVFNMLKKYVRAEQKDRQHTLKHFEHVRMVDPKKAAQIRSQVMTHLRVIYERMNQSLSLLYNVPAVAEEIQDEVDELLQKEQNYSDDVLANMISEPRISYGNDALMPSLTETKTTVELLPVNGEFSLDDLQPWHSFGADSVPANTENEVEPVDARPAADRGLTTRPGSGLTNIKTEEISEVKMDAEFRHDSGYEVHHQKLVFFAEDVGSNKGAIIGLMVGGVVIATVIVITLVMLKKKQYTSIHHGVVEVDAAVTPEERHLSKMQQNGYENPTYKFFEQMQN

Substance | Aβ1-40 release, expressed as the percentage of control (cells transfected with the empty vector DNA) | Aβ release (% of control), Aβ1-40 ELISA of conditioned medium of transfected SH-SY5Y cells
BACE455 (from UniProt P56817 46-501) (enzyme) | 200 % of control | 195 % of control
BACE501 (from UniProt P56817 46-501) (enzyme) | – | 193 % of control
